Test results as given in patent US20260258137A1 (HARBOUR BIOMED SHANGHAI, published 2026).

Experiments:
[1] = molecular target: human PD-L1 on Hep3B cells co-expressing human PD-L1 and OS8 (human, UniProt Q9NZQ7 19-290); test: cell-based or functional assay
[2] = molecular target: T1, human PD-L1 on CHO-K1 cells (CHO-K1/hPD-L1, Nanjing Genscript, M00543) (human, UniProt Q9NZQ7 19-290); test: flow cytometry on CHO-K1/hPD-L1 cells
T1 construct: whole, on cells; also called CHO-K1 cells overexpressing human PD-L1; human PD-L1 on the cell surface
T1 sequence (Q9NZQ7 19-290, one chain of several): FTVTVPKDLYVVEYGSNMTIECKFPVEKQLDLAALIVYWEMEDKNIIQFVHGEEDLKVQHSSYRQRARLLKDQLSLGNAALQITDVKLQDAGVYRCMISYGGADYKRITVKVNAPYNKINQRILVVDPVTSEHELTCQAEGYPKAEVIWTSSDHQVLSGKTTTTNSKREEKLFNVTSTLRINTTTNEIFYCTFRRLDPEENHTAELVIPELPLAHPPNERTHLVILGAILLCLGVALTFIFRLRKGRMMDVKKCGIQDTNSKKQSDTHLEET

[3] = molecular target: T2, Human PD-L1 (Acrobiosystems, EP-101-96tests, A001-214) (human, UniProt Q9NZQ7 19-238); test: competition ELISA: hPD-1-Biotin binding to coated hPD-L1
T2 construct: bought reagent; also called human PD-L1 protein
T2 sequence (Q9NZQ7 19-238 limits assumed): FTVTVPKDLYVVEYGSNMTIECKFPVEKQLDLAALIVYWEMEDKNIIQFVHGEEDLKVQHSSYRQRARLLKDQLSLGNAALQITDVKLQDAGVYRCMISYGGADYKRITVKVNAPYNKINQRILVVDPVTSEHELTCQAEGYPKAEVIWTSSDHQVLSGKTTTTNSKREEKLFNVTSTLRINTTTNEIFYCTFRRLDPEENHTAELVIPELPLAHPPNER

[4] = molecular target: T3, Human PD-L1-hFc protein (Acrobiosystems, PD1-H5258) (human, UniProt Q9NZQ7 19-238); test: competition ELISA: hB7-1-Biotin binding to coated hPD-L1-hFc
T3 construct: bought reagent; not shown: human Fc (hFc)
T3 sequence (Q9NZQ7 19-238 limits assumed): as above

[5] = molecular target: T1, human PD-L1 on CHO-K1 cells …; test: flow cytometry competition: biotin-hPD-1 binding to CHO-K1/hPD-L1 cells
[6] = molecular target: T4, Human PD-L1 (Acrobiosystems, PD1-H5229) (human, UniProt Q9NZQ7 19-238); test: ELISA, coated human PD-L1
T4 construct: bought reagent; also called human PD-L1 protein
T4 sequence (Q9NZQ7 19-238 limits assumed): as above

human PD-L1 on Hep3B cells co-expressing human PD-L1 and OS8, sequence (Q9NZQ7 19-290): as the sequence (Q9NZQ7 19-290, one chain of several) above

Binder | EC50 (nM), PD-1 / NFAT-luciferase reporter [1] | Maximum fluorescence value (RLU) [1] | EC50 [2] | MFI maximum value [2] | IC50 [3] | Maximum inhibition rate (%) [3] | IC50 [4] | Maximum inhibition rate (%) [4] | IC50 [5] | Maximum inhibition rate (%) [5] | EC50 [6]
PR000067 (antibody, human IgG1, kappa, N297A, V domains shown, fully human recombinant antibody, human IgG1 heavy chain, kappa light chain (IGKV1-5); also called 73G3G9B11) VH: EVQLVESGGGLVQPGGSLRLSCAASGFTFSSYWMSWVRQAPGKGLEWVANIKQDGSEKYYVDSVKGRFTISRDNAKNSLYLQMNSLRAEDTAVYYCARDRAVAGAFDIWGQGTMVTVSS VL: not shown | 0.682 nM | 79800 RLU | 456 pM | 7340 MFI | 333 pM | 92.9% | 153 pM | 36.9% | 894 pM | 91.2% | 
PR000070 (antibody, human IgG1, kappa, N297A, V domains shown, fully human recombinant antibody, human IgG1 heavy chain, kappa light chain (IGKV1-5); also called 91G3H5H3) VH: EVQLVESGGGLVQPGGSLRLSCAASGFTFSSYWMSWVRQAPGKGLEWVANIKQDGSEKYYVDSVKGRFTISRDNAKNSLYLQMNSLRAEDTAVYYCARDRAVAGAFDIWGQGTMVTVSS VL: DIQMTQSPSTLSASVGDRVTVTCRASQSIYIWLAWYQQKPGKAPNLLIYKASSLETGVPSRFSGSGSGTEFTLTISSLQPDDFATYYCQQYYGSSRTFGQGTKVEIKR | 0.269 nM | 82700 RLU | 210 pM | 7790 MFI | 200 pM | 90.6% | 305 pM | 39.9% | 449 pM | 90.7% | 64.1 pM
PR000065 (antibody, human IgG1, kappa, N297A, V domains shown, fully human recombinant antibody, human IgG1 heavy chain, kappa light chain (IGKV1-5); also called 67C1F7G6) VH: EVQLVESGGGLVQPGGSLRLSCAASGFTFSSYWMSWVRQAPGKGLEWVANIKQDGSEKYYVDSVKGRFTISRDNAKNSLYLQMNSLRAEDTAVYYCARDRAVAGAFDIWGQGTMVTVSS VL: DIQMTQSPSTLSASVGDRVTITCRASQSIFIWLAWYQQKPGKAPNLLIYKASSLETGVPSRFSGSGSGTEFTLTISSLQPDDFATYYCQQYYGSSRTFGQGTKVEIKR |  |  | 412 pM | 7660 MFI | 432 pM | 99% | 312 pM | 43.8% |  |  | 
PR000072 (antibody, human IgG1, kappa, N297A, V domains shown, fully human recombinant antibody, human IgG1 heavy chain, kappa light chain (IGKV1-5); also called 98E11H1C9) VH: EVQLVESGGGLVQPGGSLRLSCAASGFTFSSYWMSWVRQAPGKGLEWVANIKQDGSEKYYGDSVKGRFTISRDNAKNSLYLQMNSLRAEETAVYYCARDRAVAGASDIWGQGTMVTVSS VL: DIQMTQSPSTLSASVGDRVTITCRASQSISSWLAWYQQKPGKAPNLLIYKASSLETGVPSRFSGSGSGTEFTLTISSLQPDDFATYYCQQYYGYSRTFGQGTKVEIKR | 0.293 nM | 78000 RLU | 292 pM | 7630 MFI | 237 pM | 89.8% | 253 pM | 47.6% | 746 pM | 92.5% | 47.4 pM
PR000069 (antibody, human IgG1, kappa, N297A, V domains shown, fully human recombinant antibody, human IgG1 heavy chain, kappa light chain (IGKV1-5); also called 85C5E4G3) VH: EVQLVESGGGLVQPGGSLRLSCAASGFTFSSYWMSWVRQAPGKGLEWVANIKQDGSEKYYVDSVKGRFTISRDNAKNSLYLQMNSLRAEDTAVFYCARDRAVAGAFAIWGQGTMVTVSS VL: DIQMTQSPSTLSASVGDRVTITCRASQSIYIWLAWYQQHPGKAPKLLIYKASSLESGVPSRFSGSGSGTEFTLTISSLQPDDFATYFCQQYYGYSRTFGQGTKVEIRR | 0.271 nM | 83300 RLU | 312 pM | 7530 MFI | 313 pM | 90.7% | 280 pM | 33% | 836 pM | 92.3% | 63.7 pM
PR000263 (antibody, human IgG1, kappa, N297A, V domains shown, heavy chain human IgG1 (N297A)) VH: EVQLVESGGGLVQPGGSLRLSCAASGFTFSSYWMSWVRQAPGKGLEWVANIKQEGSEKYYVDSVKGRFTISRDNAKNSLYLQMNSLRAEDTAVFYCARDRAVAGAFAIWGQGTMVTVSS VL: DIQMTQSPSTLSASVGDRVTITCRASQSIYIWLAWYQQHPGKAPKLLIYKASSLESGVPSRFSGSGSGTEFTLTISSLQPDDFATYFCQQYYGYSRTFGQGTKVEIRR |  |  |  |  |  |  |  |  |  |  | 32.1 pM
PR000071 (antibody, human IgG1, kappa, N297A, V domains shown, fully human recombinant antibody, human IgG1 heavy chain, kappa light chain (IGKV1-5); also called 95C7C4A9) VH: EVQLVESGGGLVQPGGSLRLSCAASGFTFSSYWMSWVRQAPGKGLEWVANIKQDGSEKYYVDSVKGRFTISRDNAKNSQYLQMNSLRAEDTAVYYCARDRAVAGASDIWGQGTMVTVSS VL: not shown | 2.71 nM | 79700 RLU | 521 pM | 6890 MFI | 448 pM | 89% | 351 pM | 37.5% | 987 pM | 91.6% | 
PR000262 (antibody, human IgG1, kappa, N297A, V domains shown, PTM variant of PR000066 (H:G55A); heavy chain human IgG1 (N297A)) VH: EVQLVESGGGLVQPGGSLRLSCAASGFTFSSYWMSWVRQAPGKGLEWVANIKQDASEKYYVDSVKGRFTISRDNAKNSLYLQMNSLRAEDTAVYYCARDRAVAGASAFWGQGTMVTVSS VL: DIQMTQSPSTLSASVGHRVTITCRASQSISIWLAWYQQKPGKAPDLLIYKASSLETGVPSRFSGSGSGTEFTLTISSLQPDDFATYYCQQYYGSSRTFGQGTKVEIKR |  |  |  |  |  |  |  |  |  |  | 33.8 pM
PR000264 (antibody, human IgG1, kappa, N297A, V domains shown, heavy chain human IgG1 (N297A)) VH: EVQLVESGGGLVQPGGSLRLSCAASGFTFSSYWMSWVRQAPGKGLEWVANIKQDASEKYYVDSVKGRFTISRDNAKNSLYLQMNSLRAEDTAVFYCARDRAVAGAFAIWGQGTMVTVSS VL: DIQMTQSPSTLSASVGDRVTITCRASQSIYIWLAWYQQHPGKAPKLLIYKASSLESGVPSRFSGSGSGTEFTLTISSLQPDDFATYFCQQYYGYSRTFGQGTKVEIRR |  |  |  |  |  |  |  |  |  |  | 34.3 pM
PR000261 (antibody, human IgG1, kappa, N297A, V domains shown, PTM variant of PR000066 (H:D54E); heavy chain human IgG1 (N297A)) VH: EVQLVESGGGLVQPGGSLRLSCAASGFTFSSYWMSWVRQAPGKGLEWVANIKQEGSEKYYVDSVKGRFTISRDNAKNSLYLQMNSLRAEDTAVYYCARDRAVAGASAFWGQGTMVTVSS VL: DIQMTQSPSTLSASVGHRVTITCRASQSISIWLAWYQQKPGKAPDLLIYKASSLETGVPSRFSGSGSGTEFTLTISSLQPDDFATYYCQQYYGSSRTFGQGTKVEIKR |  |  |  |  |  |  |  |  |  |  | 38.5 pM
PR000064 (antibody, human IgG1, kappa, N297A, V domains shown, fully human recombinant antibody, human IgG1 heavy chain, kappa light chain (IGKV1-5); also called 63G11H3G9) VH: EVQLVESGGGLVQPGGSLRLSCAASGFTFSSYWMSWVRQAPGKGLEWVANIKQDGSEKYYVDSVKGRFTISRDNAKNSLYLQMNSLRAEDTAVYYCARDRAVAGAFDIWGQGTMVTVSS VL: DIQMTQSPSTLSTSVGDRVTITCRASQSISIWLAWYQQKPGKAPKLLIYKASSLESGVPSRFSGSGSGTEFTLTISSLQPDDFATYYCQQYYGYSRTFGQGTKVEIKR | 0.533 nM | 81600 RLU | 417 pM | 7880 MFI | 313 pM | 91.1% | 284 pM | 35.9% | 938 pM | 91.5% | 
PR000068 (antibody, human IgG1, kappa, N297A, V domains shown, fully human recombinant antibody, human IgG1 heavy chain, kappa light chain (IGKV1-5); also called 82F8H7E1) VH: EVQLVESGGGLVQPGGSLRLSCAASGFTFSSYWMSWVRQAPGKGLEWVANIKQDGSEKYYVDSVKGRFTISRDNAKNSLYLQMNSLRAEDTAVYYCARDRPVAGASDIWGQGTMVTVSS VL: not shown | 0.603 nM | 83300 RLU | 326 pM | 7640 MFI | 288 pM | 91.6% | 199 pM | 35% | 853 pM | 91.4% | 
PR000066 (antibody, human IgG1, kappa, N297A, V domains shown, fully human recombinant antibody, human IgG1 heavy chain, kappa light chain (IGKV1-5); also called 69B8G8C2) VH: EVQLVESGGGLVQPGGSLRLSCAASGFTFSSYWMSWVRQAPGKGLEWVANIKQDGSEKYYVDSVKGRFTISRDNAKNSLYLQMNSLRAEDTAVYYCARDRAVAGASAFWGQGTMVTVSS VL: DIQMTQSPSTLSASVGHRVTITCRASQSISIWLAWYQQKPGKAPDLLIYKASSLETGVPSRFSGNGSGTEFTLTISSLQPDDFATYYCQQYYGSSRTFGQGTKVEIKR | 0.292 nM | 85900 RLU | 255 pM | 7860 MFI | 350 pM | 93% | 198 pM | 47.2% | 539 pM | 91.8% | 18.9 pM
